The supplement of paper PMC9876800

System: peptide library, one residue held at a place counted from the S/T acceptor
Test: relative phosphorylation of the sub-library (ratio to the mean residue at this position); higher = residue favoured
Conditions: human
Outline: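 Relative sub-library phosphorylation is the ratio of each sub-library's signal to the mean residue at that position. The signal came from phosphorimaging of spots on streptavidin membranes, quantified by densitometry, after purified recombinant kinases reacted with biotinylated degenerate peptide sub-libraries in 384-well plates. Reactions held 50 μM peptide and 50 μM ATP spiked with γ-32P-ATP for 90 min under kinase-specific conditions.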

Chain of PRKD1, construct: Full length (Q15139 whole entry, looked up): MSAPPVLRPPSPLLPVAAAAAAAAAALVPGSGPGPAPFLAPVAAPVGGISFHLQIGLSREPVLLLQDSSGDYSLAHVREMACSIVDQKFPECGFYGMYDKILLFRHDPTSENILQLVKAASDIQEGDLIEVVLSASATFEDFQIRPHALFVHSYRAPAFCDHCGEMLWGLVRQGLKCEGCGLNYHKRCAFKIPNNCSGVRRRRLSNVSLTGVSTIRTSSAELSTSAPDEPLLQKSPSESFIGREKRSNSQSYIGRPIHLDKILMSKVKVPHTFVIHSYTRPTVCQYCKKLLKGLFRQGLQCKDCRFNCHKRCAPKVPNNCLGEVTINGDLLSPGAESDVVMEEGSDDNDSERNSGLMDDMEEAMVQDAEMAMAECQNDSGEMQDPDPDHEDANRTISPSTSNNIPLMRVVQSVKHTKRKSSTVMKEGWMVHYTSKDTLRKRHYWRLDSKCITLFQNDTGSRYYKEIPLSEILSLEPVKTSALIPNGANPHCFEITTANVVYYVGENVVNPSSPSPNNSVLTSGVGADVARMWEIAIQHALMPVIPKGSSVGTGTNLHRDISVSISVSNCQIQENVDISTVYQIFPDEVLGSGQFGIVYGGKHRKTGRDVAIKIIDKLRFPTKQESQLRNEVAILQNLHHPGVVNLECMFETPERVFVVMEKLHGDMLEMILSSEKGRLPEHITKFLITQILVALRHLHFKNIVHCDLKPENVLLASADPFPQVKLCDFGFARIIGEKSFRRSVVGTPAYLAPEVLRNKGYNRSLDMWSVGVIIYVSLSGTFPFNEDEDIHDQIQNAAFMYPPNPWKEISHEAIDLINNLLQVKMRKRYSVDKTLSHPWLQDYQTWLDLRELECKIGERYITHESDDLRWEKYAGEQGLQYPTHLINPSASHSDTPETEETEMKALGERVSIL

PRKD1, construct: Full length (from UniProt Q15139)
relative phosphorylation
Conditions | at +1 | at +2 | at +3 | at +4 | at -1 | at -2 | at -3 | at -4 | at -5
A fixed | 0.979 | 1.13 | 0.873 | 1.1 | 0.938 | 1.9 | 1.38 | 1.82 | 1.63
D fixed | 0.653 | 1.21 | 1.14 | 1.37 | 0.869 | 0.32 | 0.243 | 0.514 | 0.411
E fixed | 0.53 | 0.784 | 0.839 | 1.05 | 0.564 | 0.578 | 0.347 | 0.925 | 0.362
F fixed | 0.964 | 0.86 | 0.811 | 0.885 | 0.467 | 0.609 | 0.47 | 0.792 | 0.668
G fixed | 1.19 | 1.52 | 1.75 | 1.39 | 0.878 | 0.682 | 0.919 | 1.86 | 0.708
H fixed | 1.05 | 1.04 | 0.95 | 1.23 | 0.823 | 0.726 | 0.802 | 0.897 | 0.506
I fixed | 0.989 | 0.505 | 0.669 | 0.601 | 0.383 | 0.552 | 0.284 | 0.694 | 1.03
K fixed | 0.619 | 0.518 | 0.582 | 0.651 | 1.79 | 1.78 | 1.46 | 1.09 | 0.414
L fixed | 1.02 | 0.66 | 0.887 | 0.674 | 0.863 | 0.735 | 0.346 | 0.791 | 3.41
M fixed | 1.22 | 0.946 | 0.886 | 0.924 | 0.945 | 1.79 | 0.653 | 1.25 | 0.713
N fixed | 2.19 | 1.9 | 1.2 | 1.31 | 2.05 | 0.912 | 0.829 | 0.831 | 0.537
P fixed | 0.369 | 1.81 | 2.37 | 1.46 | 2.43 | 0.593 | 1.49 | 0.656 | 1.34
Q fixed | 1.47 | 1.1 | 1.13 | 1.25 | 1.27 | 2.26 | 0.865 | 1.26 | 0.953
R fixed | 0.537 | 0.486 | 0.364 | 0.436 | 0.703 | 1.46 | 5.06 | 1.12 | 1.29
V fixed | 1.04 | 0.688 | 0.735 | 0.624 | 0.613 | 1.01 | 0.411 | 0.844 | 1.61
W fixed | 0.966 | 0.971 | 0.889 | 0.963 | 0.535 | 0.455 | 0.677 | 0.787 | 0.538
Y fixed | 1.22 | 0.86 | 0.926 | 1.07 | 0.873 | 0.644 | 0.777 | 0.857 | 0.878
pThr fixed | 0.596 | 0.624 | 0.842 | 0.939 | 0.207 | 0.27 | 0.295 | 0.467 | 0.28
pTyr fixed | 0.774 | 0.836 | 0.826 | 1.12 | 0.69 | 0.357 | 0.306 | 0.533 | 0.624
